In the supplement of paper PMC9233669:
Variants at the floor of the assay were thinned out.

Assays:
biotinyl-Met-oxazolone = assay: self-aminoacylation, catalytic enhancement (BMO) (fold over background); higher = more active; k-Seq, kA / k0A0; sequences stand for … in GGGAAUGGAUCCACAUCUACGAAUUC…UUCACUGCAGACUUGACGAAGCUG
Method in brief: (§1)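 Catalytic enhancement equals the median kA over the uncatalyzed rate, the latter read from the low-activity peak of a bimodal Gaussian fit. Values of kA came from fitting each sequence's fraction reacted to a pseudo-first-order model, with 1000 bootstraps. Reacted RNA was captured with streptavidin and quantified by triplicate qPCR and Illumina sequencing after 90 minutes at room temperature with 2–1250 μM biotinyl-aminoacyl-oxazolone and 0.43 μM mutagenized RNA pools bearing a 21-nt variable region.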

biotinyl-Val-oxazolone = assay: self-aminoacylation, catalytic enhancement (BVO) (fold over background); higher = more active; k-Seq, kA / k0A0; sequences stand for … in GGGAAUGGAUCCACAUCUACGAAUUC…UUCACUGCAGACUUGACGAAGCUG
Method in brief: as §1

biotinyl-Phe-oxazolone = assay: self-aminoacylation, catalytic enhancement (BFO) (fold over background); higher = more active; k-Seq, kA / k0A0; sequences stand for … in GGGAAUGGAUCCACAUCUACGAAUUC…UUCACUGCAGACUUGACGAAGCUG
Method in brief: as §1

biotinyl-Trp-oxazolone = assay: self-aminoacylation, catalytic enhancement (BWO) (fold over background); higher = more active; k-Seq, kA / k0A0; sequences stand for … in GGGAAUGGAUCCACAUCUACGAAUUC…UUCACUGCAGACUUGACGAAGCUG
Method in brief: as §1

biotinyl-Ile-oxazolone = assay: self-aminoacylation, catalytic enhancement (BIO) (fold over background); higher = more active; k-Seq, kA / k0A0; sequences stand for … in GGGAAUGGAUCCACAUCUACGAAUUC…UUCACUGCAGACUUGACGAAGCUG
Method in brief: as §1

biotinyl-Leu-oxazolone = assay: self-aminoacylation, catalytic enhancement (BLO) (fold over background); higher = more active; k-Seq, kA / k0A0; sequences stand for … in GGGAAUGGAUCCACAUCUACGAAUUC…UUCACUGCAGACUUGACGAAGCUG
Method in brief: as §1

Work on “AUUCACCUAGGUCAUCGAUUG [Fam2.2 aminoacylation ribozyme variant]” yielded a self-aminoacylation (biotinyl-Met-oxazolone) of 0.539, a self-aminoacylation (biotinyl-Val-oxazolone) of 0.586 and a self-aminoacylation (biotinyl-Phe-oxazolone) of 0.422. The self-aminoacylation (biotinyl-Trp-oxazolone) was 0.489, the self-aminoacylation (biotinyl-Ile-oxazolone) was 0.512 and the self-aminoacylation (biotinyl-Leu-oxazolone) was 0.502.

“AUUCACCUAGGUCAUCGCGCG [Fam2.2 aminoacylation ribozyme variant]” gave a self-aminoacylation (biotinyl-Met-oxazolone) of 5.13, a self-aminoacylation (biotinyl-Val-oxazolone) of 5.13 and a self-aminoacylation (biotinyl-Phe-oxazolone) of 22.4. The self-aminoacylation (biotinyl-Trp-oxazolone) was 3.32, the self-aminoacylation (biotinyl-Ile-oxazolone) was 5.42 and the self-aminoacylation (biotinyl-Leu-oxazolone) was 7.72.

Work on “AUUCACCUAGGUCAUCGCGUA [Fam2.2 aminoacylation ribozyme variant]” yielded a self-aminoacylation (biotinyl-Met-oxazolone) of 3.71, a self-aminoacylation (biotinyl-Val-oxazolone) of 2.89 and a self-aminoacylation (biotinyl-Phe-oxazolone) of 19.4. The self-aminoacylation (biotinyl-Trp-oxazolone) was 6.08, the self-aminoacylation (biotinyl-Ile-oxazolone) was 3.2 and the self-aminoacylation (biotinyl-Leu-oxazolone) was 4.3.

For “AUUCACCUAGGUCAUCGGAAG [Fam2.2 aminoacylation ribozyme variant]”, the self-aminoacylation (biotinyl-Met-oxazolone) was 0.562, the self-aminoacylation (biotinyl-Val-oxazolone) was 0.782 and the self-aminoacylation (biotinyl-Phe-oxazolone) was 0.472. It also gave a self-aminoacylation (biotinyl-Trp-oxazolone) of 0.705, a self-aminoacylation (biotinyl-Ile-oxazolone) of 0.622 and a self-aminoacylation (biotinyl-Leu-oxazolone) of 0.541.

“AUUCACCUAGGUCAUCGGAUG [Fam2.2 aminoacylation ribozyme variant]” showed a self-aminoacylation (biotinyl-Met-oxazolone) of 0.773, a self-aminoacylation (biotinyl-Val-oxazolone) of 0.928 and a self-aminoacylation (biotinyl-Phe-oxazolone) of 0.601. It also gave a self-aminoacylation (biotinyl-Trp-oxazolone) of 0.594, a self-aminoacylation (biotinyl-Ile-oxazolone) of 0.814 and a self-aminoacylation (biotinyl-Leu-oxazolone) of 0.748.

“AUUCACCUAGGUCAUCGGCGG [Fam2.2 aminoacylation ribozyme variant]” showed a self-aminoacylation (biotinyl-Met-oxazolone) of 4.11, a self-aminoacylation (biotinyl-Val-oxazolone) of 3.27 and a self-aminoacylation (biotinyl-Phe-oxazolone) of 17.9. The self-aminoacylation (biotinyl-Trp-oxazolone) was 2.74, the self-aminoacylation (biotinyl-Ile-oxazolone) was 3.21 and the self-aminoacylation (biotinyl-Leu-oxazolone) was 5.14.

For “AUUCACCUAGGUCAUCGGCUG [Fam2.2 aminoacylation ribozyme variant]”, the self-aminoacylation (biotinyl-Met-oxazolone) was 1.73, the self-aminoacylation (biotinyl-Val-oxazolone) was 1.91 and the self-aminoacylation (biotinyl-Phe-oxazolone) was 4.96. The self-aminoacylation (biotinyl-Trp-oxazolone) was 1.49, the self-aminoacylation (biotinyl-Ile-oxazolone) was 1.74 and the self-aminoacylation (biotinyl-Leu-oxazolone) was 1.91.

“AUUCACCUAGGUCAUCGGGAG [Fam2.2 aminoacylation ribozyme variant]” was tested, and the self-aminoacylation (biotinyl-Met-oxazolone) was 1.58, the self-aminoacylation (biotinyl-Val-oxazolone) was 1.44 and the self-aminoacylation (biotinyl-Phe-oxazolone) was 1.65. For the same sequence, the self-aminoacylation (biotinyl-Trp-oxazolone) was 1.39, the self-aminoacylation (biotinyl-Ile-oxazolone) was 1.43 and the self-aminoacylation (biotinyl-Leu-oxazolone) was 1.86.

“AUUCACCUAGGUCAUCGGGGA [Fam2.2 aminoacylation ribozyme variant]” was tested, and the self-aminoacylation (biotinyl-Met-oxazolone) was 19.8, the self-aminoacylation (biotinyl-Val-oxazolone) was 9.77 and the self-aminoacylation (biotinyl-Phe-oxazolone) was 123. For the same sequence, the self-aminoacylation (biotinyl-Trp-oxazolone) was 15.5, the self-aminoacylation (biotinyl-Ile-oxazolone) was 11.4 and the self-aminoacylation (biotinyl-Leu-oxazolone) was 26.

For “AUUCACCUAGGUCAUCGGGUA [Fam2.2 aminoacylation ribozyme variant]”, the self-aminoacylation (biotinyl-Met-oxazolone) was 71.8, the self-aminoacylation (biotinyl-Val-oxazolone) was 32 and the self-aminoacylation (biotinyl-Phe-oxazolone) was 605. The self-aminoacylation (biotinyl-Trp-oxazolone) was 49.5, the self-aminoacylation (biotinyl-Ile-oxazolone) was 37.2 and the self-aminoacylation (biotinyl-Leu-oxazolone) was 101.

“AUUCACCUAGGUCAUCGGGUG [Fam2.2 aminoacylation ribozyme variant]” showed a self-aminoacylation (biotinyl-Met-oxazolone) of 60.1, a self-aminoacylation (biotinyl-Val-oxazolone) of 28.4 and a self-aminoacylation (biotinyl-Phe-oxazolone) of 486. It also gave a self-aminoacylation (biotinyl-Trp-oxazolone) of 45.6, a self-aminoacylation (biotinyl-Ile-oxazolone) of 33.2 and a self-aminoacylation (biotinyl-Leu-oxazolone) of 83.7.

Sequence “AUUCACCUAGGUCAUCGGGUU [Fam2.2 aminoacylation ribozyme variant]” has a self-aminoacylation (biotinyl-Met-oxazolone) of 18.4, a self-aminoacylation (biotinyl-Val-oxazolone) of 9.43 and a self-aminoacylation (biotinyl-Phe-oxazolone) of 118. The self-aminoacylation (biotinyl-Trp-oxazolone) was 13.8, the self-aminoacylation (biotinyl-Ile-oxazolone) was 10.8 and the self-aminoacylation (biotinyl-Leu-oxazolone) was 26.4.

In the case of “AUUCACCUAGGUCAUCGGUUC [Fam2.2 aminoacylation ribozyme variant]”, the self-aminoacylation (biotinyl-Met-oxazolone) is reported as 1.43, the self-aminoacylation (biotinyl-Val-oxazolone) is reported as 1.43 and the self-aminoacylation (biotinyl-Phe-oxazolone) is reported as 4.35. It also gave a self-aminoacylation (biotinyl-Trp-oxazolone) of 1.07, a self-aminoacylation (biotinyl-Ile-oxazolone) of 1.33 and a self-aminoacylation (biotinyl-Leu-oxazolone) of 1.19.

In the case of “AUUCACCUAGGUCAUCUGGUC [Fam2.2 aminoacylation ribozyme variant]”, the self-aminoacylation (biotinyl-Met-oxazolone) is reported as 0.623, the self-aminoacylation (biotinyl-Val-oxazolone) is reported as 0.686 and the self-aminoacylation (biotinyl-Phe-oxazolone) is reported as 0.411. The self-aminoacylation (biotinyl-Trp-oxazolone) was 0.378, the self-aminoacylation (biotinyl-Ile-oxazolone) was 0.522 and the self-aminoacylation (biotinyl-Leu-oxazolone) was 0.596.

“AUUCACCUAGGUCAUGCGGUG [Fam2.2 aminoacylation ribozyme variant]” showed a self-aminoacylation (biotinyl-Met-oxazolone) of 4.77, a self-aminoacylation (biotinyl-Val-oxazolone) of 4.13 and a self-aminoacylation (biotinyl-Phe-oxazolone) of 33.8. The self-aminoacylation (biotinyl-Trp-oxazolone) was 5.3, the self-aminoacylation (biotinyl-Ile-oxazolone) was 4.12 and the self-aminoacylation (biotinyl-Leu-oxazolone) was 6.55.

With “AUUCACCUAGGUCAUGGGGGG [Fam2.2 aminoacylation ribozyme variant]” the self-aminoacylation (biotinyl-Met-oxazolone) was 2.72, the self-aminoacylation (biotinyl-Val-oxazolone) was 2 and the self-aminoacylation (biotinyl-Phe-oxazolone) was 1.11. It also gave a self-aminoacylation (biotinyl-Trp-oxazolone) of 2.23, a self-aminoacylation (biotinyl-Ile-oxazolone) of 2.55 and a self-aminoacylation (biotinyl-Leu-oxazolone) of 3.18.

With “AUUCACCUAGGUCAUUCGGUG [Fam2.2 aminoacylation ribozyme variant]” the self-aminoacylation (biotinyl-Met-oxazolone) was 4.55, the self-aminoacylation (biotinyl-Val-oxazolone) was 3.79 and the self-aminoacylation (biotinyl-Phe-oxazolone) was 33.6. For the same sequence, the self-aminoacylation (biotinyl-Trp-oxazolone) was 5.13, the self-aminoacylation (biotinyl-Ile-oxazolone) was 3.94 and the self-aminoacylation (biotinyl-Leu-oxazolone) was 6.91.

In the case of “AUUCACCUAGGUCAUUGGGGG [Fam2.2 aminoacylation ribozyme variant]”, the self-aminoacylation (biotinyl-Met-oxazolone) is reported as 2.67, the self-aminoacylation (biotinyl-Val-oxazolone) is reported as 2.06 and the self-aminoacylation (biotinyl-Phe-oxazolone) is reported as 1.27. For the same sequence, the self-aminoacylation (biotinyl-Trp-oxazolone) was 3.03, the self-aminoacylation (biotinyl-Ile-oxazolone) was 2.45 and the self-aminoacylation (biotinyl-Leu-oxazolone) was 2.77.

“AUUCACCUAGGUCCGCGGGUG [Fam2.2 aminoacylation ribozyme variant]” showed a self-aminoacylation (biotinyl-Met-oxazolone) of 9.13, a self-aminoacylation (biotinyl-Val-oxazolone) of 4.58 and a self-aminoacylation (biotinyl-Phe-oxazolone) of 50.3. For the same sequence, the self-aminoacylation (biotinyl-Trp-oxazolone) was 7.69, the self-aminoacylation (biotinyl-Ile-oxazolone) was 5.39 and the self-aminoacylation (biotinyl-Leu-oxazolone) was 8.76.

Sequence “AUUCACCUAGGUCCUCGCGUG [Fam2.2 aminoacylation ribozyme variant]” has a self-aminoacylation (biotinyl-Met-oxazolone) of 7.68, a self-aminoacylation (biotinyl-Val-oxazolone) of 4.96 and a self-aminoacylation (biotinyl-Phe-oxazolone) of 51.4. It also gave a self-aminoacylation (biotinyl-Trp-oxazolone) of 6.43, a self-aminoacylation (biotinyl-Ile-oxazolone) of 4.84 and a self-aminoacylation (biotinyl-Leu-oxazolone) of 10.4.

In the case of “AUUCACCUAGGUCCUCGGCUG [Fam2.2 aminoacylation ribozyme variant]”, the self-aminoacylation (biotinyl-Met-oxazolone) is reported as 2.07, the self-aminoacylation (biotinyl-Val-oxazolone) is reported as 2.25 and the self-aminoacylation (biotinyl-Phe-oxazolone) is reported as 8.15. It also gave a self-aminoacylation (biotinyl-Trp-oxazolone) of 2.67, a self-aminoacylation (biotinyl-Ile-oxazolone) of 2.51 and a self-aminoacylation (biotinyl-Leu-oxazolone) of 2.6.

“AUUCACCUAGGUCGACGGGUG [Fam2.2 aminoacylation ribozyme variant]” showed a self-aminoacylation (biotinyl-Met-oxazolone) of 2.93, a self-aminoacylation (biotinyl-Val-oxazolone) of 1.87 and a self-aminoacylation (biotinyl-Phe-oxazolone) of 13.3. It also gave a self-aminoacylation (biotinyl-Trp-oxazolone) of 2.19, a self-aminoacylation (biotinyl-Ile-oxazolone) of 1.88 and a self-aminoacylation (biotinyl-Leu-oxazolone) of 3.27.

“AUUCACCUAGGUCGGCGGGUG [Fam2.2 aminoacylation ribozyme variant]” was tested, and the self-aminoacylation (biotinyl-Met-oxazolone) was 6.63, the self-aminoacylation (biotinyl-Val-oxazolone) was 5.49 and the self-aminoacylation (biotinyl-Phe-oxazolone) was 41.6. It also gave a self-aminoacylation (biotinyl-Trp-oxazolone) of 6.02, a self-aminoacylation (biotinyl-Ile-oxazolone) of 4.39 and a self-aminoacylation (biotinyl-Leu-oxazolone) of 8.86.
